Results taken from the DeepSol protein solubility set.

Experiment: soluble on expression in E. coli; label from the status in PepcDB or PDB records

Sequence	soluble on expression in E. coli
MAERGFREGTLEEASKILGVDKSSLASLSNLLAEKGVVEVEERVEEHYVLTERGRDALERGLPEEKLVLFLAGRGGEASVEEVRRALGEEAGIALGQAARKGLVVIAGGVVRLAVDQAEALKTITPLKKLLENVASGSKPTVGDELLREALSRGLIRREARRSIVLRLKVNPAEALARARVEAAVLTRDMLKSGEWRRLRFKPYNVKAEPPRVLPARRHFLAEFIERLRDILRELGFREVRGPLVELELFNFDVLFQAQDHPAREIHDSLWIKSPRRGDLSGYSDLVERVASVHERGWKYRWSPEVASRYILRSQTTAVSARILATRPNPPARFFTVGKVFRSDAVGPTRLPEFHQLDGIEGDEGYTFRDLLGRLDEIASMLGLKLKFKPAYFPFTEPSVEGYVKLPNGRWLELFGAGMFRPEVLEAVGVDYPVGAWGFGIERLAMAFYGVSDIRKLYTRNVDEVREMRVRWL	soluble
MAESKAKNMFQKLSLTPKRNHEHDAGRNIETEEELLQKLKRLKLDNDYLHMWLSYEKLATIVENRSTDKTRKPEYGKLIFYYQGAAHALVSIWKRDSDLPFEQYISGDIARLFNKALDVAIRHMDPTVVHTIARDGGVALMSIDKPIEARDVLVRGENHLVAVPADGQLDFLERLIVLYYIMDSILIEERWNEYMVYTDKVWMMTMKEDKRCPLLENIIKEVEQVAVLLLVFQRKVECSERHKQLLASYRLDDWKAPIIKHNPPLSSLNPSEQKVFRRFLFYMMSNKRSVDKVLKHR	not soluble
MAETKRMTVSQALVEFLGHQWTVDGDIRERTIPGMFGIFGHGNVAGIGQALKQYNVEQPELMPYYQARNEQAMVHQSVGYARMHRRRGTYASAASVGPGATNLLTGAALATTNRLPALLLPSDTFATRVADPVLQQLEQPWDIGLTVNDAFRPVSKFFDRVQRPEQLFSIALAAMRVLTDPAETGAVTIALPEDVQAEMLDVPVEFLQDREWHIRRPR	not soluble
MAEVVVIGAGLSGTLMAYELLPQLGKDDRLSVISQGAIYHFVPSNPWVAVGWRKRDEIEIDLVDIMKRKGVRLLTQGAKRLHPTENRVELSDGTSINYDYLVVATGPELAFDEIPGLGPQGHTQSICHVDHASHAKDAFEKLAARPGPVVIGAVQGASCFGPAYEFLFILETELRRRKLRDQVPMTFVTSEPYVGHLGLDGVGDTKGLLEGEMREKHVKWITNARVKGVEAGKMVVEELGEGGAVHKTHELPFAYSMMLPAFRGVEAVRGIDKLTNPRGFVIVDKHQRNPAFPNVFAVGVCVAIAPVGATPVSVGVPKTGFMIESMVTATALNIGALLRGKEPSAQPTWNAICLADFGDSGVAFLAQPQIPPRNVNWSSKGEWVHYAKVAFEKYFLRKMRRGESEPFYERFLLDKLNIAKIKEVRTGTLEHHHHHH	soluble
MAFLSQLQGGFAQLKQKAEAAAPSIADSLNQLKEAPKFMESAFKTGLNKVKLDSLGKVLNVPSLGRTQSPIDIVPVITAFGEHLQNAHFEVTYESTGEFKAVNDGNSIWLMREGNSSELAISFLPEEQYHLDAVNFHWATEPMNGSEHTIGGVGYAGEMHLIHRNTRFATMADALKQPNGVIAIAVFLNESHDDNAVFSPLINLLPQVIYKGSECKLCSFDFQTFFPVAEKTKEFWMYEGSETTDPFRETVNWIVIRAALPISSHQLDKLREVRAGRYDEEFSDKVPMKPLRPIQNPSSRTIQSSFRSVAGAPDLGFRQ	not soluble
MAFNSALFDGMVIFSEVVTSGSFTQAALNSGHSTSYISKEIGKLEERLGVRLLHRTTRTLRLTPEGELYFQQCQQLIEDAQMAENSITGQQEKPKGRLKVSCPVGFALSRLRPILGKFTDLYPDIILELDLNDKKIDIVAEGFDMAIRASHQLEDSSLISRRFLRSKAITIASPGYLKKHGAPLYPHDLSSHKTIGYAYVKQGAIWDFFDKNKQPFSVQLNSQVITNNSFMALSLCLAEQGITRIPHFHLTDELETGKLVELFADYPKLTIDIFMVYPSRKHMSAKVRCFMDFISEHLGD	not soluble
MAGASVKVAVRVRPFNSREMSRDSKCIIQMSGSTTTIVNPKQPKETPKSFSFDYSYWSHTSPEDINYASQKQVYRDIGEEMLQHAFEGYNVCIFAYGQTGAGKSYTMMGKQEKDQQGIIPQLCEDLFSRINDTTNDNMSYSVEVSYMEIYCERVRDLLNPKNKGNLRVREHPLLGPYVEDLSKLAVTSYNDIQDLMDSGNKPRTVAATNMNETSSRSHAVFNIIFTQKRHDAETNITTEKVSKISLVDLAGSERADSTGAKGTRLKEGANINKSLTTLGKVISALAEMDSGPNKNKKKKKTDFIPYRDSVLTWLLRENLGGNSRTAMVAALSPADINYDETLSTLRYADRAKQIRNTVSVNHHHHH	soluble
